Legend:
[1] = molecular target: T1, Cynomolgus Factor P (cynomolgus); assay: SET, solution equilibrium titration
T1 construct: Purified from cynomolgus serum for SET/Biacore; Factor P of cynomolgus serum in the functional assays; also called Cyno Factor P; cyno FP
Procedure: (§1) In SET, a constant amount of antibody is incubated with different concentrations of antigen until equilibrium is reached. The concentration of free antibody in the equilibrated solution is determined by applying the solution on an antigen coated MSD™ plate (Meso Scale Discovery™) followed by incubation with an ECL-labeled secondary antibody and measurement of signal intensity. At low antigen concentrations, a strong signal is achieved (high concentration of free antibody which binds to the antigen on the plate) whereas for high antigen concentration, the antibody is completely antigen-captured, resulting in a low signal. If a sufficient number of antigen concentrations in a matching range are available, the titration curve allows for a reasonable determination of the affinity, using the appropriate fit model. […] The constant concentration of antibody applied in the assay should be in the range of, or below, the KD (Table 4).
(§2) Human Factor P (Complement Technology cat#: A139) and Cyno Factor P purified from cyno serum (protocol adapted from Nakano, et al., (1986) J Immunol Methods 90:77-83) were coated on standard binding MSD plates (Meso-Scale Discovery, 384-well: MSD cat#: L21XA, 96-well: MSD cat#: L15XA) at 0.2-0.3 μg/ml in 25 μl PBS and incubated overnight at 4° C. Factor P inhibitors were diluted to a fixed concentration (1 pM or 10 pM) in incubation buffer (PBS with 2% BSA (Sigma cat#: A4503) and 1% Tween20 and 1% Triton-X (Sigma cat#: 234729)), and added to a serial dilution of Factor P (human or cyno) in incubation buffer. Samples were allowed to reach equilibrium by incubation at RT overnight. Plates were washed 3× in wash buffer (PBS with 0.05% Tween20), and blocked with 100 μl incubation buffer at RT for 2 hrs. Plates were washed 3× in wash buffer. Sample containing Factor P inhibitors and Factor P titration were added to the plate (25 μl), and incubated at RT for 15 min. Plates were washed 3× in wash buffer. 25 μl detection antibody was added (Anti-Human (Goat) Sulfo-TAG, 1:1000 in incubation buffer, MSD cat#: R32AJ-1), and incubated at RT for 60 min. Plates were washed 3× in wash buffer, and 50 μl of 1×MSD Read buffer T was added (with surfactant, MSD cat#: R92TC-1). Plates were read on a MSD Spector Imager 6000.

[2] = molecular target: T2, Human Factor P (human, UniProt P27918 29-469); assay: SET, solution equilibrium titration
T2 construct: Bought protein (Complement Technology cat# A139) in SET and Biacore; Factor P of human serum in the functional assays; also called FP; human FP
Procedure: as §1, §2

[3] = molecular target: T1, Cynomolgus Factor P; assay: cell-based or functional assay
[4] = molecular target: T2, Human Factor P; assay: cell-based or functional assay
[5] = molecular target: T1, Cynomolgus Factor P; assay: Biacore SPR, captured Factor P
[6] = molecular target: T2, Human Factor P; assay: Biacore SPR, captured Factor P

T2 sequence (P27918 29-469 limits assumed): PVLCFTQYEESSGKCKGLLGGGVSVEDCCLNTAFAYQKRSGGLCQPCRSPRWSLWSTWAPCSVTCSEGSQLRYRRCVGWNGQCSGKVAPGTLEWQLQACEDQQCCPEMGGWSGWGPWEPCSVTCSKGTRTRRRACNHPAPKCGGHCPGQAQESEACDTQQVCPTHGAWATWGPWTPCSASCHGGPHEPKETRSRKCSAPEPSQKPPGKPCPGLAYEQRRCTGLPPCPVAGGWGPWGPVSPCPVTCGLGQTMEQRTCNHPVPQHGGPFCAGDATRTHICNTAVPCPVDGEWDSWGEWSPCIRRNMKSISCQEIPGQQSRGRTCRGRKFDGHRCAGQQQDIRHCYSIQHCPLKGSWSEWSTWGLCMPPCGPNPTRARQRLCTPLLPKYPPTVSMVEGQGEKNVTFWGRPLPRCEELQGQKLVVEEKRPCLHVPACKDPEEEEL

Binder | Kd [1] [nM] | Kd [2] [nM] | Zymosan-C3b IC50 (nM), 10% serum [3] [nM] | Inhibition of C3a generation, 20% human serum [4] [nM] | Zymosan-C3b IC50 (nM), 10% serum [4] [nM] | Kd [5] [nM] | koff [5] [s⁻¹] | kon [5] [M⁻¹ s⁻¹] | Kd [6] [nM] | koff [6] [s⁻¹] | kon [6] [M⁻¹ s⁻¹] | MAC Deposition, 20% Serum EC50 [3] [nM] | MAC Deposition, 20% Serum EC50 [4] [nM] | Hemolytic assay IC50 (nM), 10% serum [3] [nM] | Hemolytic assay IC50 (nM), 10% serum [4] [nM]
NVS963 (Fab, V domains shown, Disulfide-bridged Fab; also called Fab NVS963) VH: EVQLVQSGAEVKKPGSSVKVSCKASGGTFSSYAISWVRQAPGQGLEWMGPINPYYGDAIYAQKFQGRVTITADESTSTAYMELSSLRSEDTAVYYCARYYSDYMDYWGQGTLVTVSS VL: QSVLTQPPSVSGAPGQRVTISCTGSSSNIGAGYDVHWYQQLPGTAPKLLIHDNSHRPSGVPDRFSGSKSGTSASLAITGLQSEDEADYYCASYDESAHSVFGGGTKLTVLG | 0.115 | 0.055 | 9.75 | 65.1 | 2.34 | 0.17 | 0.0002 | 1e+06 | 0.09 | 0.0001 | 1e+06 | – | – | 14.5 | 10.1
NVS964 (Fab, V domains shown, Disulfide-bridged Fab; also called Fab NVS964) VH: EVQLVQSGAEVKKPGASVKVSCKASGYTFTSHYMHWVRQAPGQGLEWMGKINADLGDTNYAQKFQGRVTMTRDTSISTAYMELSSLRSEDTAVYYCARDGIEHGGHYYWGYLFDIWGQGTLVTVSS VL: SYELTQPPSVSVAPGQTARISCSGDSIREYYVHWYQQKPGQAPVLVIGDDTNRPSGIPERFSGSNSGNTATLTISGTQAEDEADYYCAAWDFSPAIVFGGGTKLTVLG | 0.19 | 0.02 | 6.59 | 42.2 | 1.54 | 0.16 | 0.0002 | 1e+06 | 0.035 | 4e-05 | 1e+06 | – | – | 13.4 | 9.26
NVS966 (Fab, V domains shown, Disulfide-bridged Fab; also called Fab NVS966) VH: EVQLVQSGAEVKKPGESLKISCKGSGYSFTNYWIGWVRQMPGKGLEWMGRIDPGESLTNYAPSFQGQVTISADKSISTAYLQWSSLKASDTAMYYCARTGVADVDMPFAHWGQGTLVTVSS VL: SYVLTQPPSVSVAPGKTARISCSGDNLGSYYVNWYQQKPGQAPVLVIYGDSERPSGIPERFSGSNSGNTATLTISRAQAGDEADYYCGSWDITSFVFGGGTKLTVLG | 0.04 | 0.07 | 6.62 | 41.1 | 1.66 | 0.21 | 0.0002 | 1e+06 | 0.16 | 0.0003 | 2e+06 | – | – | 13 | 7.15
NVS965-S (Fab, V domains shown, NVS965 with heavy chain N30 replaced with serine) VH: EVQLVQSGAEVKKPGSSVKVSCKASGGTFSSYAISWVRQAPGQGLEWMGRIIPIFGTANYAQKFQGRVTITADESTSTAYMELSSLRSEDTAVYYCARHGGYSFDSWGQGTLVTVSS VL: SYVLTQPPSVSVAPGKTARISCSGDNLGSKYVDWYQQKPGQAPVLVIYSDNNRPSGIPERFSGSNSGNTATLTISGTQAMDEADYYCATYDSSPRTEVFGGGTKLTVLG | 0.036 | 0.051 | 1.57 | – | 1.39 | 0.06 | 0.000163 | 2.71e+06 | 0.027 | 9.9e-05 | 3.69e+06 | 8.12 | 7.32 | 12 | 7.89
NVS965 (Fab, V domains shown, Disulfide-bridged Fab; also called Fab NVS965) VH: EVQLVQSGAEVKKPGSSVKVSCKASGGTFNSYAISWVRQAPGQGLEWMGRIIPIFGTANYAQKFQGRVTITADESTSTAYMELSSLRSEDTAVYYCARHGGYSFDSWGQGTLVTVSS VL: SYVLTQPPSVSVAPGKTARISCSGDNLGSKYVDWYQQKPGQAPVLVIYSDNNRPSGIPERFSGSNSGNTATLTISGTQAMDEADYYCATYDSSPRTEVFGGGTKLTVLG | 0.014 | 0.036 | 6.36 | 31.3 | 1.54 | 0.028 | 6.22e-05 | 2.24e+06 | 0.016 | 4.1e-05 | 2.65e+06 | 22.2 | 17.3 | 13.2 | 7.53

Continued, in another order:

Kd [1] [nM] | Kd [2] [nM] | Zymosan-C3b IC50 (nM), 10% serum [3] [nM] | Inhibition of C3a generation, 20% human serum [4] [nM] | Zymosan-C3b IC50 (nM), 10% serum [4] [nM] | Kd [5] [nM] | koff [5] [s⁻¹] | kon [5] [M⁻¹ s⁻¹] | Kd [6] [nM] | koff [6] [s⁻¹] | kon [6] [M⁻¹ s⁻¹] | MAC Deposition, 20% Serum EC50 [3] [nM] | MAC Deposition, 20% Serum EC50 [4] [nM] | Binder | Hemolytic assay IC50 (nM), 10% serum [3] [nM] | Hemolytic assay IC50 (nM), 10% serum [4] [nM]
0.189 | 0.189 | 3.12 | – | 1.15 | 0.234 | 8.7e-05 | 372000 | 0.225 | 0.000113 | 504000 | 7.86 | 9.96 | NVS962-S31A (Fab, V domains shown, NVS962 with heavy chain serine 31 replaced with alanine) VH: EVQLVQSGAEVKKPGSSVKVSCKASGGTFNAYAISWVRQAPGQGLEWMGRIIPIFGTANYAQKFQGRVTITADESTSTAYMELSSLRSEDTAVYYCARHGGYSFDSWGQGTLVTVSS VL: SYELTQPPSVSVAPGQTARISCSGDNLGSKYVDWYQQKPGQAPVLVIYSDNNRPSGIPERFSGSNSGNTATLTISGTQAEDEADYYCQTYTSGNNYLVFGGGTKLTVLG | 11.6 | 12.8
0.201 | 0.301 | 3.3 | – | 1.64 | 0.215 | 0.000594 | 2.77e+06 | 0.138 | 0.000366 | 2.65e+06 | 9.39 | 15.4 | NVS965-Q (Fab, V domains shown, NVS965 with heavy chain N30 replaced with glutamine) VH: EVQLVQSGAEVKKPGSSVKVSCKASGGTFQSYAISWVRQAPGQGLEWMGRIIPIFGTANYAQKFQGRVTITADESTSTAYMELSSLRSEDTAVYYCARHGGYSFDSWGQGTLVTVSS VL: SYVLTQPPSVSVAPGKTARISCSGDNLGSKYVDWYQQKPGQAPVLVIYSDNNRPSGIPERFSGSNSGNTATLTISGTQAMDEADYYCATYDSSPRTEVFGGGTKLTVLG | 14.7 | 9.71
0.354 | 0.251 | 3.1 | – | 1.75 | 0.175 | 8.56e-05 | 488000 | 0.131 | 8.35e-05 | 639000 | 5.42 | 6.61 | NVS962-T (Fab, V domains shown, NVS962 with heavy chain N30 replaced with threonine; also called NSV962-T) VH: EVQLVQSGAEVKKPGSSVKVSCKASGGTFTSYAISWVRQAPGQGLEWMGRIIPIFGTANYAQKFQGRVTITADESTSTAYMELSSLRSEDTAVYYCARHGGYSFDSWGQGTLVTVSS VL: SYELTQPPSVSVAPGQTARISCSGDNLGSKYVDWYQQKPGQAPVLVIYSDNNRPSGIPERFSGSNSGNTATLTISGTQAEDEADYYCQTYTSGNNYLVFGGGTKLTVLG | 12.5 | 9.31
0.044 | 0.052 | 1.91 | – | 0.77 | 0.0746 | 0.000151 | 2.17e+06 | 0.0514 | 0.000103 | 2.37e+06 | 11 | 13.8 | NVS965-T (Fab, V domains shown, NVS965 with heavy chain N30 replaced with threonine) VH: EVQLVQSGAEVKKPGSSVKVSCKASGGTFTSYAISWVRQAPGQGLEWMGRIIPIFGTANYAQKFQGRVTITADESTSTAYMELSSLRSEDTAVYYCARHGGYSFDSWGQGTLVTVSS VL: SYVLTQPPSVSVAPGKTARISCSGDNLGSKYVDWYQQKPGQAPVLVIYSDNNRPSGIPERFSGSNSGNTATLTISGTQAMDEADYYCATYDSSPRTEVFGGGTKLTVLG | 12.5 | 7.15

From patent US20130295102A1 (Novartis, published 2013)
